Key:
purified protein [1] = substrate: O=C(O)C(=O)CO; assay: purified protein; settings: apparent, GA constant at 50 mM, ThDP 2.4 mM, MgCl2 9 mM, TEA 2 mM pH 7, 65 °C
purified protein [2] = substrate: O=CCO; assay: purified protein; format: biochemical, Thermotoga maritima; settings: apparent, LiHPA constant at 50 mM, ThDP 2.4 mM, MgCl2 9 mM, TEA 2 mM pH 7, 65 °C

B1: TKtmar (Thermotoga maritima MSB8) (protein)
chain: MERFPYEKLPESELKELKELGRLCRGDILKMTYIANSGHPGGSMSSIDLYLTVFKYAKLRPVDDPARDRIVISHGHTSPGVYAAMARLGFVDLDEVLAGFRHPASVFEGHVTRGVGIIDWTTGNLGQGLSAGLGFALASRFTGKDYHVFVLMSDAEQAKGQVAEARRVAKKYGVTNLTVIIDYNDAQISGRARDVMPVNIKENYLADGWRVIEIDGHDYEQIYLALKEAVEDELNPVAIIAKTVMGKGVSFMENEVKYHGKPLNREELEKALAELGIENDVDVYIEKRKQLPVEKHKKVYKTYPIKIDTGEPITYTSPTDNRSAFGKAILDLVKKNVNNPETTPIVAVDCDLKGSVKLDLLDKEFPERLLEVGVQEHNAAAMAGALSAEGVITFFADFGVFGISETYNQHRLNAINGTNLKVVVTHCGLNVGEDGKTHHGLDYVSGPMNWYGFKVIVPGDPNQTDRVVRYAAKEYGNFVIAMGRSKLPIILDENGKPFFGEGYTFEYGKIDVVRKGDDAVIITYGSTLCEAVNAADELKKEGVNVAVLNVSCPVDLDIETLKMVDGKPVLVVEDHNVFTGLGSFLGTTLLENGIIPKKYVRVGVPEFAVSGSYTMLYKLYGLDKDGIISRLREML
notes: full length with C-terminal His6 tag, pET-29:SacB-SapI, E. coli BL21(DE3), Ni-NTA purified
Km (purified protein [1]): 53.8 ± 4.1 mM
Vmax (purified protein [1]): 330 µM/min
kcat (purified protein [1]): 0.77 s⁻¹
kcat/Km (purified protein [1]): 14.4 M⁻¹ s⁻¹
Km (purified protein [2]): 3.6 ± 0.4 mM
Vmax (purified protein [2]): 190 µM/min
kcat (purified protein [2]): 0.45 ± 0.03 s⁻¹
kcat/Km (purified protein [2]): 126 ± 6 M⁻¹ s⁻¹

From article PMC8317047, “Characterisation of a hyperthermophilic transketolase from Thermotoga maritima DSM3109 as a biocatalyst for 7-keto-octuronic acid synthesis” (Organic & Biomolecular Chemistry, 2021)
